Reference: article PMC10628450 (2023)

Experiments:
[1] = molecular target: T1, FcRn-His6 (UniProt P55899 24-365); test: BLI; pH 6
[2] = molecular target: T1, FcRn-His6; test: BLI; pH 6; remark: listed apart in the source

koff [1]: 0.0685 s⁻¹ | Kd [2]: 361 nM
B1: Anti-NKp46 IgG (antibody)
chain 1: QVQLVQSGAEVKKPGSSVKVSCKASGYTFSDYVINWVRQAPGQGLEWMGEIYPGSGTNYYNEKFKAKATITADKSTSTAYMELSSLRSEDTAVYYCARRGRYGLYAMDYWGQGTTVTVSS
chain 2: DIQMTQSPSSLSASVGDRVTITCRASQDISNYLNWYQQKPGKAPKLLIYYTSRLHSGVPSRFSGSGSGTDFTFTISSLQPEDIATYFCQQGNTRPWTFGGGTKVEIK
modifications: In-house soluble FcRn-His6, tag omitted; ectodomain limits from UniProt topology; beta-2-microglobulin is not named in the paper and is added by convention as the obligate light chain; check residues are not from the paper; N-glycosylated
